Our source for the Km, kcat and kcat/Km values is patent publication US6428997B1, “Aminopeptidase derived from Bacillus licheniformis and process for preparation of natural type proteins” (LG Chemical Ltd., priority 1997, dated 2002).

Data set [1] relates to CC(C)C[C@H](N)C(=O)Nc1ccc([N+](=O)[O-])cc1. Kind of data set: purified protein, by the assay type. As to conditions: other: Tris-Cl pH 8.0, 37° C., measured by same experiment, Lineweaver-Burk plot.
Protocol: (§1) Precisely, 1 U of enzyme activity defines the enzyme quantity changing 1 absorbance at 405 nm which is measured by the process adding aminopeptidase in 1 ml solution of 100M Tris-Cl (pH 8.0) and 2 mM leucine-p-nitroanilide (Sigma, USA), incubating at 37° C. for 1 min, then adding 100 μl of 70% acetic acid to stop the reaction. At that time leucine-p-nitroanilide was dissolved in dimethylsulfoxide (DMSO) to make 100 mM solution.
(§2) In order to compare substrate specificity of aminopeptidase of this invention, 2 kinds of substrate were used. In detail, one was synthetic substrates of p-nitroanilide derivative and purchased from Sigma, USA and the other was oligopeptide such as methionyl oligopeptide of SEQ. ID. NO: 1 which have amino acid sequence similar to N-terminus of methionyl HGH and leucyl oligopeptide of SEQ. ID. NO: 2.
(§3) Enzyme reaction of aminopeptidase was performed by the process described in Reference Examples. At that time p-nitroanilide derivative was used as synthetic substrate. Leucine p-nitroanilide was used as substrate to perform the reaction in concentration of 0.03125, 0.0625, 0.125, 0.25, 0.5, 1 mM and methionine p-nitroanilide in 0.125, 0.25, 0.5, 1 mM and aminopeptidase in 0.5 U respectively. Above reactions using leucine-p-nitroanilide proceeded for 2 min and methionine-p-nitroanilide for 40 min. Then 70% acetic acid was added to stop the reactions and absorbance at 405 nm was measured. The product concentration was measured by adopting absorbance constant ε405=9450M^−1 cm^−1.
(§4) In reaction condition mentioned above, initial velocity of enzyme reaction was measured with varying the substrate concentration. Lineweaver-Burk plot was used to determine Km value and Maximum reaction velocity of aminopeptidase from Bacillus licheniformis. In addition kcat and kcat/Km was determined by using Km value and maximum reaction velocity described above.
In data set [2] the test system is CSCC[C@H](N)C(=O)Nc1ccc([N+](=O)[O-])cc1. Briefly: purified protein, by the assay type. Conditions: other: Tris-Cl pH 8.0, 37° C., measured by same experiment, Lineweaver-Burk plot.
Protocol: as §1, §2, §3, §4

What is called Km is the substrate concentration at which the rate is half of its maximum. As usually defined, the kcat is the number of substrate molecules converted per active site and unit of time at saturation. In general, kcat/Km refers to the second-order rate constant that governs catalysis at low substrate concentration. For “Aeromonas proteolytica (Vibrio proteolytica) aminopeptidase (Vibrio proteolyticus)”, in data set [1], the Km turned out to be 240 µM, the kcat turned out to be 48 s⁻¹ and the kcat/Km was found to be 200000 M⁻¹ s⁻¹. Moreover, in data set [2], the Michaelis constant (Km) stood at 942 µM, the kcat is 2.64 s⁻¹ and the kcat/Km worked out at 2800 M⁻¹ s⁻¹.
